Substitutions are numbered along the chain they refer to. Each block holds one molecule with its values, some of them ahead of it.
What was measured:
[1] = molecular target: plasma-derived coagulation Factor IXa (human) (UniProt P00740); assay: cell-based or functional assay
[2] = molecular target: plasma-derived coagulation Factor IXa (human) (UniProt P00740); assay: FXa generation assay; FIXa stimulation by the one-armed antibody at eight concentrations, fitted with the quadratic binding equation

UniProt P00740, sequence (P00740 47-191, chain 1 of 2): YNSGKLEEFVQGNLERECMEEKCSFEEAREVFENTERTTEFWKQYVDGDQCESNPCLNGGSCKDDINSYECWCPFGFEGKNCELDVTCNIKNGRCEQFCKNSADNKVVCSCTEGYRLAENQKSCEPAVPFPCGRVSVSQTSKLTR
UniProt P00740, sequence (P00740 227-461, chain 2 of 2): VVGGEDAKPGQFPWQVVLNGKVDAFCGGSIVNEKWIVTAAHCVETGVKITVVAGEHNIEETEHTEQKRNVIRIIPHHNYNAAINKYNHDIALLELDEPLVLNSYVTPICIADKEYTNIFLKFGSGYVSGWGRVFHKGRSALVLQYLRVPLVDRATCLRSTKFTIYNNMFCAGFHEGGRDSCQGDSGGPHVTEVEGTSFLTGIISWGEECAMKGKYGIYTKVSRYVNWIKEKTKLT

- Stimulation Index (FXa generation assay; estimated at full FIXa saturation) [1]: 1370 fold
- Kd [2]: 1100 nM
Molecule: monovalent one-armed (OA) version of the anti-FIXa antibody of emicizumab (ACE910)

- Stimulation Index (FXa generation assay; 1599 nM OA antibody) [1]: 9840 fold
B1: monovalent one-armed (OA) antibody of anti-FIX(a) mAb1 (antibody, V domains shown, part only)
VH: EVQLVESGGGLVQPGRSLRLSCAASGFTFHDYAMHWVRQVPGKGLEWVSGISWRGDIGGYVKSVKGRFTISRDNAKNSLYLQMNSLRAEDTALYYCVKSYGSGSFYNAFDSWGQGTLVTVSS
VL: DIQMTQSPSTLSASVGDRVTITCRASQSISSWLAWYQQKPGKAPKFLIYKGSKADRGTPSRFSGSGSGTEFTLTISSLQPDDFATYYCLEYESYIRTFGQGTKVEIK
modifications: constant regions and truncated heavy chain not given

- Stimulation Index (FXa generation assay; 1463 nM OA antibody) [1]: 11200 fold
B2: monovalent one-armed (OA) antibody of anti-FIX(a) mAb5 (antibody, V domains shown, part only)
VH: B1 VH
VL: B1 VL with R18E, S52E, A54L, E92S
modifications: constant regions and truncated heavy chain not given

- Stimulation Index (FXa generation assay; 3547 nM OA antibody) [1]: 13500 fold
B3: monovalent one-armed (OA) antibody of anti-FIX(a) mAb6 (antibody, V domains shown, part only)
VH: B1 VH
VL: B1 VL with R18E, A54L, E92S
modifications: constant regions and truncated heavy chain not given

- Stimulation Index (FXa generation assay; 1276 nM OA antibody) [1]: 10100 fold
B4: monovalent one-armed (OA) antibody of anti-FIX(a) mAb8 (antibody, V domains shown, part only)
VH: B1 VH
VL: B1 VL with G51A, S52E, A54L
modifications: constant regions and truncated heavy chain not given

- Stimulation Index (FXa generation assay; 851 nM OA antibody) [1]: 8730 fold
B5: monovalent one-armed (OA) antibody of anti-FIX(a) mAb7 (antibody, V domains shown, part only)
VH: B1 VH
VL: B1 VL with R18E, G51A, S52E, A54L
modifications: constant regions and truncated heavy chain not given

- Stimulation Index (FXa generation assay; 5640 nM OA antibody) [1]: 14200 fold
B6: monovalent one-armed (OA) antibody of anti-FIX(a) mAb2 (antibody, V domains shown, part only)
VH: B1 VH
VL: B1 VL with A54Q, E92S
modifications: constant regions and truncated heavy chain not given

- Stimulation Index (FXa generation assay; 749 nM OA antibody) [1]: 8650 fold
B7: monovalent one-armed (OA) antibody of anti-FIX(a) mAb3 (antibody, V domains shown, part only)
VH: B1 VH
VL: B1 VL with A54T
modifications: constant regions and truncated heavy chain not given

- Stimulation Index (FXa generation assay; 1217 nM OA antibody) [1]: 10500 fold
B8: monovalent one-armed (OA) antibody of anti-FIX(a) mAb4 (antibody, V domains shown, part only)
VH: B1 VH
VL: B1 VL with G51S, S52E, A54L
modifications: constant regions and truncated heavy chain not given
